Measured values as given in paper PMC3408443.

Target: MHC II molecules of Flt3L-mobilized splenic CD11c+ DCs from Balb/c×C57Bl/6 (I-A^b,d/E^d) F1 mice (mouse (endogenous in splenic DCs))
Assay: affinity purification with mass spectrometry

KELEEQLGPVAEETR [… MHC II peptide derived from endogenous apolipoprotein E]
amount of peptide eluted from MHC II: 15 fmol/µL
copies per cell presented on MHC II: 180 copies/cell
